Reference: publication PMC7429351, “Comparison of ligand binding and conformational stability of human calmodulin with its homolog from the malaria parasite Plasmodium falciparum” (FASEB BioAdvances, 2020)
Several values for one entry are separate records, joined by “and”; a condition that tells them apart may be missing. Equal values may be shown once. Read-outs that look alike come from different tables or passages of the source.

What was measured:
[1] = biological target: T1, human CaM (Homo sapiens, UniProt P0DP23); test: ANS binding fluorescence, human CaM; conditions: 10 μmol/L ANS
T1 construct: properties of the whole protein can be explored with differential scanning calorimetry; made in house; host or cells: E coli

[2] = biological target: T2, Pf CaM (Plasmodium falciparum, UniProt P62203); test: ANS binding fluorescence, Pf CaM; conditions: 10 μmol/L ANS
T2 construct: properties of the whole protein can be explored with differential scanning calorimetry; made in house; host or cells: E coli
Procedure: (§1) Spectra were collected using a Jobin Yvon Fluoromax‐3 spectrofluorometer at 25°C in the standard assay buffer containing either 1 mmol/L EGTA or 1 mmol/L CaCl2. Spectra were recorded three times, averaged, and corrected by subtracting the appropriate blank. Tyrosine fluorescence was excited at 274 nm, the emission was detected between 285 and 370 nm, and the intensities were recorded at 303 nm. In ANS binding assays, 10 μmol/L of ANS (8‐anilinonaphtalene‐1‐sulfonic acid, Fluka, 10417) was excited at 388 nm in the presence of 2 μmol/L CaM in standard assay buffer, and the emission was monitored from 410 to 600 nm. In experiments with dansyl‐labeled CaM, the fluorophore was excited at 340 nm, and the emission was monitored from 400 to 600 nm.

[3] = biological target: T2, Pf CaM; test: Calcineurin activity assay, inhibition of Pf CaM function; format: biochemical; conditions: for inhibition of Pf CaM function in CaN activity assay: screen of selected Malaria Box compounds
Procedure: (§2) Calcineurin (PPase‐2B, CaN) was purchased from Promega (V6361, isolated from bovine brain). Dephosphorylation of the substrate p‐nitrophenyl phosphate (PNPP, Sigma, 1040) was followed by monitoring the increase in absorbance at 405 nm using a Perkin Elmer EnSpire microplate reader. The CaN activity was assayed by measuring the initial velocities at 28°C in 50 mmol/L Tris, pH 7.5 containing 0.001 unit/μL CaN, 0.1 mg/mL BSA, 20 mmol/L PNPP, 1 mmol/L NiCl2, and various amounts of CaM to determine dose‐response curves for CaN activation by CaM.

[4] = biological target: T1, human CaM; test: Isothermal titration calorimetry, ligand titrated with human CaCaM; format: binding; conditions: ITC, 25°C, 1 mmol/L CaCl2, one set of sites model
From the text: (§3) Titration curves were fitted with the models provided by the built‐in Origin software (MicroCal.).

[5] = biological target: T2, Pf CaM; test: biochemical; format: binding; conditions: ITC
From the text: as §3

[6] = biological target: T3, human CaM (dansyl-labeled) (Homo sapiens, UniProt P0DP23); test: Dansyl-CaM fluorescence titration, human CaM; format: binding; conditions: hyperbolic fit
T3 construct: properties of the whole protein can be explored with differential scanning calorimetry; made in house; host or cells: E coli
Procedure: as §1

[7] = biological target: T4, dansyl-labeled Pf CaM (Plasmodium falciparum, UniProt P62203); test: Dansyl-CaM fluorescence titration, Pf CaM; format: binding; conditions: hyperbolic fit
T4 construct: properties of the whole protein can be explored with differential scanning calorimetry; made in house; host or cells: E coli
Procedure: as §1

[8] = biological target: T1, human CaM; test: Calcineurin activity assay, inhibition of human CaM function; format: biochemical
Procedure: as §2

[9] = tested on: 3D7 chloroquine sensitive but sulfadoxine resistant strain of P falciparum; set-up: method as in earlier work; conditions: blood stage, 3D7 strain; ref MMV website (https://www.mmv.org/mmv-open/malaria-box/malaria-box-supporting-information); cited from earlier work
[10] = Differential scanning calorimetry thermal denaturation; format: physicochemical; conditions: DSC; for T m1 / ΔH1 / ΔHv1: first transition; for T m1 / T m2: 1°C/min; for ΔH1 / ΔH2: calorimetric enthalpy; for ΔHv1 / ΔHv2: van't Hoff enthalpy; for T m2 / ΔH2 / ΔHv2: second transition
Procedure: Thermograms were measured in the standard assay buffer complemented with 1 mmol/L EGTA or CaCl2 using a VP‐DSC microcalorimeter (MicroCal). Protein samples at 0.75 mg/mL were heated at a scan rate of 1°C/min with no feedback. Data analysis was performed with the Origin software provided by MicroCal.

[11] = biological target: T5, bovine brain CaN (Bos taurus, UniProt P48452); test: Calcineurin activation by CaM; format: biochemical; conditions: PNPP substrate, 28°C
T5 construct: purchased Promega V6361; host or cells: bovine brain
T5 sequence (P63099 2-170 partner limits assumed, other chains not shown): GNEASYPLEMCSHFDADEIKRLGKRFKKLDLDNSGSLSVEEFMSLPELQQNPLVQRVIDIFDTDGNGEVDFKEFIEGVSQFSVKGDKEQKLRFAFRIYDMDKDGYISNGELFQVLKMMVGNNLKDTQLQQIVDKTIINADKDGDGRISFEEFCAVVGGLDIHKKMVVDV
Procedure: as §2

[12] = tested on: bovine PDE; test: PDE activation by CaM; format: biochemical; conditions: 150 nmol/L CaM, 1 mmol/L CaCl2
[13] = biological target: T6, human MLCK (Homo sapiens, UniProt Q15746); test: MLCK activation by CaM (ADP-Glow); format: biochemical; conditions: 30 minutes, room temperature
T6 construct: GST; purchased Sigma M9197
T6 sequence (Q15746 1425-1771 limits assumed): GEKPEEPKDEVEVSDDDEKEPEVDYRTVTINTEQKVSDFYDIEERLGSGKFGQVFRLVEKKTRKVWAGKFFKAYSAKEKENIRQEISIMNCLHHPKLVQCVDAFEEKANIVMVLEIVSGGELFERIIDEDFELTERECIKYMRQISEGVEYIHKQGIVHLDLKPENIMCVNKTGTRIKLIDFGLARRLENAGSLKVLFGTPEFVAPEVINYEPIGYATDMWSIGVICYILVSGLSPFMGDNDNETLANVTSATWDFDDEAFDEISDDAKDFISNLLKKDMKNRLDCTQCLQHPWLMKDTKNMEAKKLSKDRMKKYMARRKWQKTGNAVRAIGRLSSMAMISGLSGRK
Procedure: Myosin light chain kinase (MLCK) was purchased from Sigma (M9197, human, recombinant, GST‐tagged). Enzyme activity was measured in standard buffer complemented with 0.5 mmol/L CaCl2, 2.5 mmol/L MgCl2, and 0.1 mg/mL BSA. When measuring activation by CaM, 20 μL reaction mixtures contained 3.5 ng/μL MLCK, 0.1 mg/mL MLCK substrate (Sigma SCP0196), 50 μmol/L ATP, 0.5 mmol/L DTT, and various amounts of CaM. Samples were incubated for 30 minutes at room temperature then ADP formed during the kinase reaction was detected using the ADP‐Glow Kinase Assay kit (Promega) according to the manufacturer's instructions. Luminescence values proportional to ADP concentration were normalized to maximal intensities obtained at saturating CaM concentrations.

[14] = Differential scanning fluorimetry (nanoDSF, intrinsic fluorescence); format: physicochemical; conditions: DSF, 5°C/min, C-domain Tyr fluorescence
Procedure: Denaturation curves were determined by detecting intrinsic protein fluorescence as a function of temperature using the Prometheus instrument (NanoTemper Technologies). Protein samples at 1.0‐1.5 mg/mL were heated at a scan rate of 5°C/min up to 110°C in the standard assay buffer using the designated set and capillaries. Data analysis was performed with the built‐in analysis software.

[15] = CD melting curves at 222 nm; format: physicochemical; conditions: CD 222 nm
Procedure: CD spectra were recorded on Jasco J‐720 and J‐810 spectropolarimeters (Jasco) using quartz cuvettes with pathlengths of 1 mm in the far‐UV and 1 cm in the near‐UV range. Samples were measured in the standard assay buffer complemented with 1 mmol/L EGTA or CaCl2 at a protein concentration of 5‐8 μmol/L in the far‐UV and 210 μmol/L in the near‐UV. Spectra were recorded at least three times at a scan speed of 20 nm/min using a bandwidth and response time of 1 nm and 4 seconds, respectively. Secondary structure content was estimated using the BeStSel method available at http://bestsel.elte.hu. ^24 Melting curves were measured in standard assay buffer or 25 mmol/L phosphate, pH 7.0, in the presence of 1 mmol/L EGTA or saturating levels of CaCl2 monitoring the ellipticity at 222 nm for secondary structure changes or at 280 nm to monitor the signal of Tyr residues. A heating rate of 1 or 2°C/min was used. In a well‐sealed 1 mm‐cell, heating up to 110°C was possible.

O=S(=O)(O)c1cccc2cccc(Nc3ccccc3)c12 [ANS, 8‐anilinonaphthalene‐1‐sulfonic acid]
ANS binding (fluorescence) ([1]; 2 μmol/L CaCaM): remarkable ANS binding | ANS binding (fluorescence) ([1]; 2 μmol/L apoprotein): no ANS binding | ANS binding (fluorescence) ([2]; 2 μmol/L CaCaM, compared with human CaCaM): approximately twofold higher fluorescence intensity | ANS binding (fluorescence) ([2]; 2 μmol/L apoprotein): no ANS binding

O=C(NCC(c1ccsc1)N1CCCCCC1)c1ccc(C(F)(F)F)cc1 (stereo not shown) [MMV396672]
inhibition of Pf CaM function in CaN activity assay [3]: showed inhibitory effect

OC(CNCC1CCCO1)Cn1c2ccc(Cl)cc2c2cc(Cl)ccc21 (stereo not shown) [MMV396736]
Kd [4]: 2.5 ± 0.5 µM | Kd ([5]; 25°C, 1 mmol/L CaCl2, one set of sites model, read-out: K d): 2.5 ± 0.2 µM | stoichiometry n ([5]; one set of sites model): ~ 8 and 7.4 ± 0.1 | Kd [6]: 1.8 ± 0.4 µM | Kd [7]: 2.4 ± 0.4 µM | IC50 [3]: 6.2 ± 1.5 µM | inhibition of Pf CaM function in CaN activity assay [3]: showed inhibitory effect | IC50 [8]: 1.6 ± 0.76 µM | EC50 [9]: 1.06 µM

Cl.N=c1n(CCN2CCCCC2)c2ccccc2n1CC(O)c1cccc(Br)c1 (stereo not shown) [MMV665902]
inhibition of Pf CaM function in CaN activity assay [3]: showed inhibitory effect

O=C(Nc1ccc(F)c(Cl)c1)Nc1ccc(Cl)c(Cl)c1 [MMV665953]
inhibition of Pf CaM function in CaN activity assay [3]: showed inhibitory effect

CC[C@H](C)[C@H](NC(=O)CN)C(=O)NCC(=O)N[C@@H](C)C(=O)N[C@H](C(=O)N[C@@H](CC(C)C)C(=O)N[C@@H](CCCCN)C(=O)N[C@H](C(=O)N[C@@H](CC(C)C)C(=O)N[C@H](C(=O)N[C@H](C(=O)NCC(=O)N[C@@H](CC(C)C)C(=O)N1CCC[C@H]1C(=O)N[C@@H](C)C(=O)N[C@@H](CC(C)C)C(=O)N[C@H](C(=O)N[C@@H](CO)C(=O)N[C@@H](Cc1c[nH]c2ccccc12)C(=O)N[C@H](C(=O)N[C@@H](CCCCN)C(=O)N[C@@H](CCCNC(=N)N)C(=O)N[C@@H](CCCCN)C(=O)N[C@@H](CCCNC(=N)N)C(=O)N[C@@H](CCC(N)=O)C(=O)N[C@@H](CCC(N)=O)C(N)=O)[C@@H](C)CC)[C@@H](C)CC)[C@@H](C)O)[C@@H](C)O)C(C)C)C(C)C [melittin]
Kd ([5]; K d, one set of sites model, upper limit): < 0.03 µM

Pf CaCaM: Plasmodium falciparum calmodulin, Ca2+‐saturated form
T m1 [10]: 92.6 ± 0.1 °C | ΔH1 [10]: 200 ± 1.3 kJ/mol | ΔHv1 [10]: 186 ± 1.3 kJ/mol | T m2 [10]: 125.9 ± 0.2 °C | ΔH2 [10]: 410 ± 9.2 kJ/mol | ΔHv2 [10]: 275 ± 3.3 kJ/mol

Pf CaM: Recombinant Plasmodium falciparum calmodulin (Uniprot P62203) expressed in E coli
EC50 [11]: 0.001 µM | activation by CaM (elevation of the basal activity) [11]: 2.1 fold | increase of PDE activity [12]: the same activation effect | EC50 [13]: ~0.015 µM | T m [14]: ~ 51 °C

Pf apoCaM: Plasmodium falciparum calmodulin, Ca2+-free apo form
T m1 [10]: 54.7 ± 0.2 °C | ΔH1 [10]: 172 ± 5.02 kJ/mol | ΔHv1 [10]: 201 ± 1.7 kJ/mol | T m2 [10]: 64.3 ± 0.1 °C | ΔH2 [10]: 140 ± 5.02 kJ/mol | ΔHv2 [10]: 224 ± 2.5 kJ/mol | T m ([15]; in phosphate buffer of low ionic strength): 51.2 ± 0.1 °C | T m ([15]; standard assay buffer): 54.4 ± 0.2 °C | T m [14]: 51.2 ± 0.6 °C
